Measured values published in patent US20210107983A1 (Boehringer Ingelheim, published 2021).

T1: Cyno B7H6-His (cynomolgus monkey)
T1 construct: also called CyB7H6; cyB7-H6
T1 chain: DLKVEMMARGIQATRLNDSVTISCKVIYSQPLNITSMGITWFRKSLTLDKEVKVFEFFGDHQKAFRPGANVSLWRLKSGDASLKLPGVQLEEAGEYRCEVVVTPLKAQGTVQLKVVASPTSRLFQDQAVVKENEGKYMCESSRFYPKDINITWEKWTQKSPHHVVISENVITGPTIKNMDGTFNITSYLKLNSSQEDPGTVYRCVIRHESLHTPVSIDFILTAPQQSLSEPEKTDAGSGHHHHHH


What was measured:
[1] = molecular target: T2, Cyno CD3 E+G HuFc-6xHis (cynomolgus monkey); assay: ratio of SPR KDs cyno/human
T2 construct: also called CyCD3E+G-hFc; cyCD3

[2] = molecular target: T1, Cyno B7H6-His; assay: ratio of SPR KDs cyno/human
[3] = molecular target: T2, Cyno CD3 E+G HuFc-6xHis; assay: SPR, CD3E+G-hFc immobilized, binder analyte
In short: (§1)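 On a ProteOn XPR36, human and cyno CD3E+G-hFc were amine-coupled to a GLM chip at 0.4, 0.2 and 0.1 μg/mL in 10 mM acetate pH 4.5. B7H6/CD3 binding protein (0–100 nM) flowed in HBS-EP+ at 30 μL/min, with 300 s association and 600 s dissociation. Interspot and blank responses were subtracted.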

[4] = molecular target: T3, Human CD3 E+G HuFc-6xHis (human); assay: SPR, CD3E+G-hFc immobilized, binder analyte
T3 construct: also called HuCD3E+G-hFc; huCD3
In short: as §1

[5] = molecular target: T1, Cyno B7H6-His; assay: SPR, binder captured on Protein A/G, B7H6 analyte
In short: (§2)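 B7H6/CD3 binder captured (~700 RU) on a Protein A/G CM5 surface in HBS-EP+. Human or cyno B7H6 injected at 0–100 nM and human B7H1 at 0 nM and 1 μM, 300 s association and 1200 s dissociation. Data double-referenced against the reference flow cell and blank.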

[6] = molecular target: T4, trypsin inhibitor from Glycine max soybean (Glycine max (soybean)); assay: SPR, 1 µM binder over immobilized trypsin inhibitor
T4 construct: unrelated negatively charged protein, amine-coupled to the chip
In short: (§3)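 Non-specific binding tested with samples at 1 μM in HBS-EP at 25 °C, 5 μL/min, over lysozyme or trypsin inhibitor amine-coupled to CM5 chip (3000–5000 RU). Association 10 min, dissociation 15 min.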

[7] = molecular target: T5, CD3 on human T-cells (human, UniProt P07766;P09693); assay: flow cytometry on purified human T-cells, PE anti-human secondary antibody
T5 construct: endogenous, on the surface of purified T-cells; also called human T-cells expressing CD3
Experimental: T-cells were isolated by negative selection using the Pan T Cell Isolation Kit II (Miltenyi Biotec #130-091-156). In brief, cells were resuspended in 40 μl buffer PBS/0.5% BSA (Gibco ref #041-94553 M)/2 mM EDTA (Invitrogen ref #15575-038) per 10 Mio cells and incubated with 10 μl of Biotin-Antibody cocktail per 10 Mio cells for 5 min at 4° C. Subsequently, 30 μl buffer and 20 μl anti-biotin MACS® MicroBeds/10 million cells were added and incubated for 10 min at 4° C. Subsequently the mixture was placed in a pre-rinsed 25LS column (Miltenyi Biotec #130-042-401) in the magnetic field of suitable MACS® microbeads separator (Miltenyi Biotec). Flow-through was collected and washed in assay medium.
T-cells were stained with increasing concentrations of two-step purified B7H6/CD3 binding proteins in FACS buffer (PBS/0.5% BSA/0.05% sodium azide). Bound molecules were detected with PE-conjugated anti-human secondary antibody (Sigma-Aldrich, #P8047).

[8] = molecular target: T6, Human B7H1 (human, UniProt Q9NZQ7 20-239); assay: SPR, binder captured on Protein A/G, HuB7H1 analyte
T6 construct: also called HuB7H1; huB7-H1
In short: as §2

[9] = molecular target: T7, chicken egg white lysozyme (chicken, UniProt P00698 19-147); assay: SPR, 1 µM binder over immobilized lysozyme
T7 construct: unrelated positively charged protein, amine-coupled to the chip; also called Lysozyme (positive)
In short: as §3

T5 sequence (P07766 23-207, chain 1 of 2): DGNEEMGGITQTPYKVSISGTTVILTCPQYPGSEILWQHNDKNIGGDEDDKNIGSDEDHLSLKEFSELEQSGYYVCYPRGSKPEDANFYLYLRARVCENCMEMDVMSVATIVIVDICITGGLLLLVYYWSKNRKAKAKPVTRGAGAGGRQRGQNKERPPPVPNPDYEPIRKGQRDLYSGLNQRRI
T5 sequence (P09693 23-182, chain 2 of 2): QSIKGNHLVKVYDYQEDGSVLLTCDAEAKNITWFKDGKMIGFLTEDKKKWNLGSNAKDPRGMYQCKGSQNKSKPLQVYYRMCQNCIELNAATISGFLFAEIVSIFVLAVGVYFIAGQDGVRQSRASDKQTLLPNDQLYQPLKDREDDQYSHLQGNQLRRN
T6 sequence (Q9NZQ7 other isoform, or with tags, fused parts or gaps limits assumed): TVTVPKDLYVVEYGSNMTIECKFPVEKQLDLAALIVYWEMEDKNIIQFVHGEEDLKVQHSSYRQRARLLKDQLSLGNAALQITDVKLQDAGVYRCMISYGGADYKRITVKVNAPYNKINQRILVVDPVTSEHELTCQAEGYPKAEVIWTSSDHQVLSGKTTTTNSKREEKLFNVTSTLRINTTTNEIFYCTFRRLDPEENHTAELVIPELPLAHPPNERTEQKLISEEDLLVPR
T7 sequence (P00698 19-147): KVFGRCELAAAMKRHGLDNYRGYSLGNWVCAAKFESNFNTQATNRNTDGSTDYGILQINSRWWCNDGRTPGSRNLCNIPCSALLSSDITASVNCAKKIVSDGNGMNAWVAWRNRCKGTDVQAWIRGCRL
T2 sequence (chain, as listed by the source limits assumed): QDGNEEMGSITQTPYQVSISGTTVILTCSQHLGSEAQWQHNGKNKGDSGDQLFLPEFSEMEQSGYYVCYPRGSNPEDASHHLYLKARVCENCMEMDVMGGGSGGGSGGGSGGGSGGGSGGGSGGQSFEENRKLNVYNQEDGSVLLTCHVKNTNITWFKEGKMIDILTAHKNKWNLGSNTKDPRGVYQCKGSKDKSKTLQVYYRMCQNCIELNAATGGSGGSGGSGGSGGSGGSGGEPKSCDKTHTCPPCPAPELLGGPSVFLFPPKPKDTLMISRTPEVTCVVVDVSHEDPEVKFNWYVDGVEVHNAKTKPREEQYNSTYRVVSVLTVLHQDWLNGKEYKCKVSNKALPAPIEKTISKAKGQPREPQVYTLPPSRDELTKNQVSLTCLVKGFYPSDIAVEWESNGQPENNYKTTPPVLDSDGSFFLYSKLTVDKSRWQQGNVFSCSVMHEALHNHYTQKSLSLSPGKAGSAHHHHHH
T3 sequence (chain, as listed by the source limits assumed): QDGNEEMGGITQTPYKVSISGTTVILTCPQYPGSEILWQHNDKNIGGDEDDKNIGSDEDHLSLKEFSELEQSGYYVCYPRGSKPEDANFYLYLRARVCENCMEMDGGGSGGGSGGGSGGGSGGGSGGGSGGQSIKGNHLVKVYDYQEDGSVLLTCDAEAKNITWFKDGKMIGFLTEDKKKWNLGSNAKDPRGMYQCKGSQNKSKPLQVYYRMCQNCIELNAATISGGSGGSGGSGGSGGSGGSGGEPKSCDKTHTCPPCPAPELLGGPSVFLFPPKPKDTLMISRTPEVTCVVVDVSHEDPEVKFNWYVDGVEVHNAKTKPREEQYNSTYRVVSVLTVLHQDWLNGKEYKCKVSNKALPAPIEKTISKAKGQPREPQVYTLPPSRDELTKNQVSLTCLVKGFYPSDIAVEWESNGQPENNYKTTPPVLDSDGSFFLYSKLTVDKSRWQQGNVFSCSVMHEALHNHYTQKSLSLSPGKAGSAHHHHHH
T4 sequence (P01070 25-205): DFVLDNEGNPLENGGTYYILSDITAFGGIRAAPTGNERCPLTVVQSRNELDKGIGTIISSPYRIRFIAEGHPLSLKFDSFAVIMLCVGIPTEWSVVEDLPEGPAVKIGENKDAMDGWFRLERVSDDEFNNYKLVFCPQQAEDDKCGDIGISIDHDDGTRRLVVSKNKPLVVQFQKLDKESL

| Binder | cy/hu CD3 [1] | cy/hu B7-H6 [2] | Kd [3] | Kd [4] | Kd [5] | Non-specific binding (RU) [6] | binding result [7] | binding result [8] | Non-specific binding (RU) [9] |
| --- | --- | --- | --- | --- | --- | --- | --- | --- | --- |
| B7H6#23/CD3#3 (bispecific antibody, human IgG1, kappa, L234A L235A, scFab-Fc heterodimer) chain 1: DIQMTQSPSSLSASVGDRVTITCKASQNVGKYVAWYQQKPGKAPKSLIYSASNRYDAVPSRFSGSGSGTDFTLTISSLQPEDFATYFCQQYISYPLTFGAGTKLEIKRTVAAPSVFIFPPSDEQLKSGTASVVCLLNNFYPREAKVQWKVDNALQSGNSQESVTEQDSKDSTYSLSSTLTLSKADYEKHKVYACEVTHQGLSSPVTKSFNRGECGGGGSEGKSSGSGSESKSTEGKSSGSGSESKSTGGGGSQVQLVQSGAEVKKPGASVKVSCKASGYTFTSYWMNWMKQAPGQGLEWIGGIYLSGESTDYNEKFKGKVTMTVDTSTSTVYMELSSLRSEDTAVYYCTRRGDYFGDFWGQGTLVTVSSASTKGPSVFPLAPSSKSTSGGTAALGCLVKDYFPEPVTVSWNSGALTSGVHTFPAVLQSSGLYSLSSVVTVPSSSLGTQTYICNVNHKPSNTKVDKRVEPKSCDKTHTCPPCPAPEAAGGPSVFLFPPKPKDTLMISRTPEVTCVVVDVSHEDPEVKFNWYVDGVEVHNAKTKPREEQYNSTYRVVSVLTVLHQDWLNGKEYKCKVSNKALPAPIEKTISKAKGQPREPQVYTLPPSREEMTKNQVSLWCLVKGFYPSDIAVEWESNGQPENNYKTTPPVLDSDGSFFLYSKLTVDKSRWQQGNVFSCSVMHEALHNHYTQKSLSLSPG chain 2: not shown | 0.9 | 0.9 | 11.9 nM | 13.8 nM | 1.9 nM | 38.7 RU | binds | no binding (tested: 1 µM) | 18.9 RU |
| B7H6#23/CD3#6 (bispecific antibody, human IgG1, kappa, L234A L235A, scFab-Fc heterodimer) chain 1: DIQMTQSPSSLSASVGDRVTITCKASQNVGKYVAWYQQKPGKAPKSLIYSASNRYDAVPSRFSGSGSGTDFTLTISSLQPEDFATYFCQQYISYPLTFGAGTKLEIKRTVAAPSVFIFPPSDEQLKSGTASVVCLLNNFYPREAKVQWKVDNALQSGNSQESVTEQDSKDSTYSLSSTLTLSKADYEKHKVYACEVTHQGLSSPVTKSFNRGECGGGGSEGKSSGSGSESKSTEGKSSGSGSESKSTGGGGSQVQLVQSGAEVKKPGASVKVSCKASGYTFTSYWMNWMKQAPGQGLEWIGGIYLSGESTDYNEKFKGKVTMTVDTSTSTVYMELSSLRSEDTAVYYCTRRGDYFGDFWGQGTLVTVSSASTKGPSVFPLAPSSKSTSGGTAALGCLVKDYFPEPVTVSWNSGALTSGVHTFPAVLQSSGLYSLSSVVTVPSSSLGTQTYICNVNHKPSNTKVDKRVEPKSCDKTHTCPPCPAPEAAGGPSVFLFPPKPKDTLMISRTPEVTCVVVDVSHEDPEVKFNWYVDGVEVHNAKTKPREEQYNSTYRVVSVLTVLHQDWLNGKEYKCKVSNKALPAPIEKTISKAKGQPREPQVYTLPPSREEMTKNQVSLWCLVKGFYPSDIAVEWESNGQPENNYKTTPPVLDSDGSFFLYSKLTVDKSRWQQGNVFSCSVMHEALHNHYTQKSLSLSPG chain 2: not shown | 1.2 | 1.1 | 3.9 nM | 3.4 nM | 2 nM | 96.5 RU | binds | no binding (tested: 1 µM) | 57.2 RU |

Binders with a lower Kd [3], results first:

| cy/hu CD3 [1] | cy/hu B7-H6 [2] | Kd [3] | Kd [4] | Kd [5] | Non-specific binding (RU) [6] | binding result [7] | binding result [8] | Non-specific binding (RU) [9] | Binder |
| --- | --- | --- | --- | --- | --- | --- | --- | --- | --- |
| 1.3 | 0.9 | 3.7 nM | 2.8 nM | 1.9 nM | 115 RU | binds | no binding (tested: 1 µM) | 15 RU | B7H6#23/CD3#5 (bispecific antibody, human IgG1, kappa, L234A L235A, scFab-Fc heterodimer) chain 1: DIQMTQSPSSLSASVGDRVTITCKASQNVGKYVAWYQQKPGKAPKSLIYSASNRYDAVPSRFSGSGSGTDFTLTISSLQPEDFATYFCQQYISYPLTFGAGTKLEIKRTVAAPSVFIFPPSDEQLKSGTASVVCLLNNFYPREAKVQWKVDNALQSGNSQESVTEQDSKDSTYSLSSTLTLSKADYEKHKVYACEVTHQGLSSPVTKSFNRGECGGGGSEGKSSGSGSESKSTEGKSSGSGSESKSTGGGGSQVQLVQSGAEVKKPGASVKVSCKASGYTFTSYWMNWMKQAPGQGLEWIGGIYLSGESTDYNEKFKGKVTMTVDTSTSTVYMELSSLRSEDTAVYYCTRRGDYFGDFWGQGTLVTVSSASTKGPSVFPLAPSSKSTSGGTAALGCLVKDYFPEPVTVSWNSGALTSGVHTFPAVLQSSGLYSLSSVVTVPSSSLGTQTYICNVNHKPSNTKVDKRVEPKSCDKTHTCPPCPAPEAAGGPSVFLFPPKPKDTLMISRTPEVTCVVVDVSHEDPEVKFNWYVDGVEVHNAKTKPREEQYNSTYRVVSVLTVLHQDWLNGKEYKCKVSNKALPAPIEKTISKAKGQPREPQVYTLPPSREEMTKNQVSLWCLVKGFYPSDIAVEWESNGQPENNYKTTPPVLDSDGSFFLYSKLTVDKSRWQQGNVFSCSVMHEALHNHYTQKSLSLSPG chain 2: not shown |
| 0.9 | 1 | 3.6 nM | 3.8 nM | 1.7 nM | 20.7 RU | binds | no binding (tested: 1 µM) | 6.8 RU | B7H6#23/CD3#4 (bispecific antibody, human IgG1, kappa, L234A L235A, scFab-Fc heterodimer) chain 1: DIQMTQSPSSLSASVGDRVTITCKASQNVGKYVAWYQQKPGKAPKSLIYSASNRYDAVPSRFSGSGSGTDFTLTISSLQPEDFATYFCQQYISYPLTFGAGTKLEIKRTVAAPSVFIFPPSDEQLKSGTASVVCLLNNFYPREAKVQWKVDNALQSGNSQESVTEQDSKDSTYSLSSTLTLSKADYEKHKVYACEVTHQGLSSPVTKSFNRGECGGGGSEGKSSGSGSESKSTEGKSSGSGSESKSTGGGGSQVQLVQSGAEVKKPGASVKVSCKASGYTFTSYWMNWMKQAPGQGLEWIGGIYLSGESTDYNEKFKGKVTMTVDTSTSTVYMELSSLRSEDTAVYYCTRRGDYFGDFWGQGTLVTVSSASTKGPSVFPLAPSSKSTSGGTAALGCLVKDYFPEPVTVSWNSGALTSGVHTFPAVLQSSGLYSLSSVVTVPSSSLGTQTYICNVNHKPSNTKVDKRVEPKSCDKTHTCPPCPAPEAAGGPSVFLFPPKPKDTLMISRTPEVTCVVVDVSHEDPEVKFNWYVDGVEVHNAKTKPREEQYNSTYRVVSVLTVLHQDWLNGKEYKCKVSNKALPAPIEKTISKAKGQPREPQVYTLPPSREEMTKNQVSLWCLVKGFYPSDIAVEWESNGQPENNYKTTPPVLDSDGSFFLYSKLTVDKSRWQQGNVFSCSVMHEALHNHYTQKSLSLSPG chain 2: not shown |
